This passage reports Kd results from publication doi:10.1101/2024.07.31.606000 (bioRxiv, 2024).

In one assay the target is complement C8 (UniProt P07357 31-584; P07358 55-591; P07360 21-202). Put plainly: SPR. Background: Surface plasmon resonance follows binding to a sensor surface in real time, without labels.
Another assay deals with complement factor H (UniProt P08603 19-1231). As to the kind of experiment: SPR.
Sequence of complement factor H (P08603 19-1231): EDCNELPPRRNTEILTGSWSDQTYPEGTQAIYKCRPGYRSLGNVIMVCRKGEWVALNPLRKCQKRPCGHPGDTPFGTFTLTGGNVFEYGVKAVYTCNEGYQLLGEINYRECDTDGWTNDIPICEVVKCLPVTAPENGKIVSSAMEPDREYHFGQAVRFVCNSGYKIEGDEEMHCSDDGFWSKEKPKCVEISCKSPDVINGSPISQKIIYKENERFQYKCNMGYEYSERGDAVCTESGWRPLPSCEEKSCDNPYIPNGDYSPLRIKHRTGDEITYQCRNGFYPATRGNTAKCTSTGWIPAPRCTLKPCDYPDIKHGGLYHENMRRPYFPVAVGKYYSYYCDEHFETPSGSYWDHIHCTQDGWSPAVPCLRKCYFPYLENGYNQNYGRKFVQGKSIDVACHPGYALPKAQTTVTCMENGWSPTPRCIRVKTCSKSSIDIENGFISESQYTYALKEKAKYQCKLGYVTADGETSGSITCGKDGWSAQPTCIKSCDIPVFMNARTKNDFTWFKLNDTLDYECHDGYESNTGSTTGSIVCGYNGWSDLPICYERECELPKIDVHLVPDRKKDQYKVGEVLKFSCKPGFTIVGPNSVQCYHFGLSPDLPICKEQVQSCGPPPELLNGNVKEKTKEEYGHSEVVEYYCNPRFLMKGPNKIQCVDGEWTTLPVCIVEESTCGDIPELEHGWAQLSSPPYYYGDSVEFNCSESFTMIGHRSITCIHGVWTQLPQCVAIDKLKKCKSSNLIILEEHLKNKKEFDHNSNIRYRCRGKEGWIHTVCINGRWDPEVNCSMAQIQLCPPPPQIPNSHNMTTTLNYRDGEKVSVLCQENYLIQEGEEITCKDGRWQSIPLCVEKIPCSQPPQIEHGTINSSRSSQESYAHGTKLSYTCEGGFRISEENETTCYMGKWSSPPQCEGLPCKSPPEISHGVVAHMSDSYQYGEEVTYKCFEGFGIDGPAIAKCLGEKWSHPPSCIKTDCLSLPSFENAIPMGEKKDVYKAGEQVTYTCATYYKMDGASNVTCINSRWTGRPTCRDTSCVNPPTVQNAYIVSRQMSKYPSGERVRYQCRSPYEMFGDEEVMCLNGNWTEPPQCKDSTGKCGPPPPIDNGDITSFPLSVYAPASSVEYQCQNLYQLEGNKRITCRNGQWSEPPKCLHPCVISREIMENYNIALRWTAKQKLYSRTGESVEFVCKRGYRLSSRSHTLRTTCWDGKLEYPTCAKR

Sequence of complement C8 (P07357 31-584, chain 1 of 3): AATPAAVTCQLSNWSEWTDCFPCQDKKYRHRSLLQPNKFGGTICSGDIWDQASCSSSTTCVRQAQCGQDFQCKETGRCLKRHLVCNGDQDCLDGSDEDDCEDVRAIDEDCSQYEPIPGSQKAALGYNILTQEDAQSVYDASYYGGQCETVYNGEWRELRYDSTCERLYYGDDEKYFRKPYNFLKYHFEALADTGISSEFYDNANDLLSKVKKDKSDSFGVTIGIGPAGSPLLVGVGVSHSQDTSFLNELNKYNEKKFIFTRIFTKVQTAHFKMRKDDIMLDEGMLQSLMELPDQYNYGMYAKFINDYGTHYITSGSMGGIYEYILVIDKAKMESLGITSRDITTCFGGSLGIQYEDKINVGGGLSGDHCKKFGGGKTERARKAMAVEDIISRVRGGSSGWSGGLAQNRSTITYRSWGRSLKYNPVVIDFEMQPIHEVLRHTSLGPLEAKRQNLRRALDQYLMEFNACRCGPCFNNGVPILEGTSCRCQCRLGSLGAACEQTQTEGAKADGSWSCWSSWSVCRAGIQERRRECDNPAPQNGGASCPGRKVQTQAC
Sequence of complement C8 (P07358 55-591, chain 2 of 3): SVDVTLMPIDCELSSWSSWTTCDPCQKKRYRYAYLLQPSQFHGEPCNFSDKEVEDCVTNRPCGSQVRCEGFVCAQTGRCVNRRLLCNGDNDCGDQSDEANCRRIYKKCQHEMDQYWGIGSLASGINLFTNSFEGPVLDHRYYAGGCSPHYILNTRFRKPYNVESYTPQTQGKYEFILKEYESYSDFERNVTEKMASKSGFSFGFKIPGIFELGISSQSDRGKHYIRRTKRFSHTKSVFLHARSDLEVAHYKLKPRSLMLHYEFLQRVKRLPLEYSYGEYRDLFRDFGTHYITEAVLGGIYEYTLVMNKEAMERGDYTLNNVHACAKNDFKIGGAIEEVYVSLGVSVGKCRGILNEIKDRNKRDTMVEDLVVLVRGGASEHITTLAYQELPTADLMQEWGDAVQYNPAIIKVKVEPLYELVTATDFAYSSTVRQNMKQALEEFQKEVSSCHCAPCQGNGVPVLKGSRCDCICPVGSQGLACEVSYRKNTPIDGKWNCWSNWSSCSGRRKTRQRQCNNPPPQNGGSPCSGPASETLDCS
Sequence of complement C8 (P07360 21-202, chain 3 of 3): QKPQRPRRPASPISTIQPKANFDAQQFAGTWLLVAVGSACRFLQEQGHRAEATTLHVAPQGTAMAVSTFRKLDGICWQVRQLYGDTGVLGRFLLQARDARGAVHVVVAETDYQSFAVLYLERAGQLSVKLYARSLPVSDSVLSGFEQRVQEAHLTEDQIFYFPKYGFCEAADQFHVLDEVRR

B1: recombinant full-length thrombospondin-1 (natural protein)
chain: not shown
One may read the Kd as a measure of binding affinity in units of concentration. On to B1, for which the equilibrium dissociation constant (Kd) with complement C8 is 311 nM; with complement factor H it was 203 nM.
